Publication PMC4113718 (Biochemistry, 2013)
Where two headings read alike, the source gives them in different places.

Assays:
[1] = target: T1, N-Terminal FITC labeled ubiquitin (UniProt P0CG47 1-76, FITC on the N-terminus); assay: binding of a fluorescent ligand to cells
[2] = target: T1, N-Terminal FITC labeled ubiquitin; assay: binding of a fluorescent ligand to cells; remark: listed apart in the source

Kd [1]: 119 nM
Kd [2]: 154 nM
B1: CXC chemokine receptor (CXCR) 4 on BV-2 cells (receptor, mouse (endogenous in BV-2), UniProt P70658 1-359, looked up)
chain: MEPISVSIYTSDNYSEEVGSGDYDSNKEPCFRDENVHFNRIFLPTIYFIIFLTGIVGNGLVILVMGYQKKLRSMTDKYRLHLSVADLLFVITLPFWAVDAMADWYFGKFLCKAVHIIYTVNLYSSVLILAFISLDRYLAIVHATNSQRPRKLLAEKAVYVGVWIPALLLTIPDFIFADVSQGDISQGDDRYICDRLYPDSLWMVVFQFQHIMVGLILPGIVILSCYCIIISKLSHSKGHQKRKALKTTVILILAFFACWLPYYVGISIDSFILLGVIKQGCDFESIVHKWISITEALAFFHCCLNPILYAFLGAKFKSSAQHALNSMSRGSSLKILSKGKRGGHSSVSTESESSSFHSS
